Assay results as given in EP4471049A1 (Zealand Pharma A/S, priority 2023, dated 2024).
Like-named read-outs stand apart in the source and are kept apart here. Each block holds one binder with its values, some of them ahead of it. *1 amine or outer side, *2 acyl side, *3 side chain or, on linkers, in order; H or OH if unused. Bridges are numbered along the chain shown (N, C = ends). Where no end group is shown, it is not given here. [ ]: non-standard residue; d: D form. 4‑Aminomethyl‑phenylacetyl = 4-aminomethyl-phenylacetyl unit, its amine closes the lactam, O=C(Cc1ccc(CN[*:1])cc1)[*:2]; αMeAla(3-pyridyl) = C[C@](N)(Cc1cccnc1)C(=O)O; 2Nal = N[C@@H](Cc1ccc2ccccc2c1)C(=O)O; AEF = NCCOc1ccc(C[C@H](N)C(=O)O)cc1; NMe3Pal = CN[C@@H](Cc1cccnc1)C(=O)O; 3Pal = N[C@@H](Cc1cccnc1)C(=O)O; αMeL = CC(C)C[C@](C)(N)C(=O)O; β3hL = CC(C)C[C@H](N)CC(=O)O; 3Amb = NCc1cccc(C(=O)O)c1; Dab = NCC[C@H](N)C(=O)O; Sar = CNCC(=O)O

How the values were obtained:
[1] = target: T1, human IL-23R endogenously expressed on DB cells (human, UniProt Q5VWK5 24-629); assay: cell-based or functional assay
T1 sequence (looked up): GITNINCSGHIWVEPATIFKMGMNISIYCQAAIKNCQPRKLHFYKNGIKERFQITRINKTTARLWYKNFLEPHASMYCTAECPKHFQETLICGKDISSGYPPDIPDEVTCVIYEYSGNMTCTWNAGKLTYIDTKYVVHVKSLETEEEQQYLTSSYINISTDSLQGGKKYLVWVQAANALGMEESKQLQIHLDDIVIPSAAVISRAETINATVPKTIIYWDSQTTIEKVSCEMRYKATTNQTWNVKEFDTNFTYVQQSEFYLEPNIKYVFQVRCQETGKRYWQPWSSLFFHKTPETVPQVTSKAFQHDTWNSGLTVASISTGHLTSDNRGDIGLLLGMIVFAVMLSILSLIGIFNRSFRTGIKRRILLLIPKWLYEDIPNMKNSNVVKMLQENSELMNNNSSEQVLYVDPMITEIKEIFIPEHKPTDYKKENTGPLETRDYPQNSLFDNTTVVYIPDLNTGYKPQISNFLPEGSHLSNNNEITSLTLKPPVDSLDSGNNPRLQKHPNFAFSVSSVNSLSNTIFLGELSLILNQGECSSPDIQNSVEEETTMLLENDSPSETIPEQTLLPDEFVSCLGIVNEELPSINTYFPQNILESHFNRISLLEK

[2] = target: T1, human IL-23R endogenously expressed on …; assay: cell-based or functional assay; remark: listed apart in the source
[3] = target: T2, Nluc-IL23R fusion protein (human, UniProt Q5VWK5 22-629); assay: BRET competition vs TAMRA-labelled peptide, Nluc-IL23R membranes; for % displacement (hIL-23R binding): test concentration or dose not given here
T2 construct: range 22-629; expressed with a secretion signal in HEK293 cells; used as crude membrane preparation; also called hIL-23R; human IL-23R; not shown: Nanoluc protein from the expression plasmid N1371 (Promega), N-terminal of IL-23R
T2 sequence (looked up): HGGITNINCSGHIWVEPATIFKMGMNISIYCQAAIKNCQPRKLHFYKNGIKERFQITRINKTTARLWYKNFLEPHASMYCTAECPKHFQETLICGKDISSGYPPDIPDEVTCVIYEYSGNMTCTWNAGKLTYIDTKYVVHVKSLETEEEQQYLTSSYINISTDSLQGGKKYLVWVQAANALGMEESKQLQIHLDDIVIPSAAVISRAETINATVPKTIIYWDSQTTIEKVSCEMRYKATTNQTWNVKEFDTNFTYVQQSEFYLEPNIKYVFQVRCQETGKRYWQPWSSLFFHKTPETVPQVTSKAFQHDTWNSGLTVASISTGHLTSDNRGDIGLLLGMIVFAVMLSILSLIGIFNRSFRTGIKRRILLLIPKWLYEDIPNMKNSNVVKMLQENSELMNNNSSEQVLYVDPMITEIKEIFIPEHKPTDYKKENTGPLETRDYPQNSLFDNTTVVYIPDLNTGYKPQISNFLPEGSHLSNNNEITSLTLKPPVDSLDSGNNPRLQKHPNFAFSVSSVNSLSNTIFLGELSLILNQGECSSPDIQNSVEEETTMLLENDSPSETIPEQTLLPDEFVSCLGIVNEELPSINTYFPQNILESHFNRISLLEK

[4] = target: T2, Nluc-IL23R fusion protein; assay: as above; remark: listed apart in the source
[5] = target: T2, Nluc-IL23R fusion protein; assay: as above; remark: listed apart in the source
[6] = target: T2, Nluc-IL23R fusion protein; assay: Ki from BRET competition (Cheng-Prusoff), Nluc-IL23R membranes
[7] = target: T1, human IL-23R endogenously expressed on …; assay: cell-based or functional assay; remark: listed apart in the source
[8] = target: T2, Nluc-IL23R fusion protein; assay: BRET competition vs TAMRA-labelled peptide, Nluc-IL23R membranes; remark: listed apart in the source; for % displacement (hIL-23R binding): test concentration or dose not given here

hIL-23 (pSTAT3) antagonist % inhibition [1]: 100%
hIL-23 (pSTAT3) antagonist IC50 [1]: 6.5 nM
IC50 (pSTAT3) [2]: 6.5 nM
% displacement (hIL-23R binding) [3]: 111%
IC50 [3]: 0.17 nM
Binder: [4‑Aminomethyl‑phenylacetyl]SEWQ[Dab][AEF][2Nal][αMeL]E[Dab][NMe3Pal]-NH2 (lactam N-10, 3-6) [Compound 4]

IC50 [4]: 12 nM
hIL-23 (pSTAT3) antagonist % inhibition [1]: 89%
hIL-23 (pSTAT3) antagonist IC50 [1]: 45 nM
% displacement (hIL-23R binding) [5]: 103%
IC50 [5]: 12 nM
B1: Ref 37 (peptide)
peptide: [3Amb]SCWQCW[2Nal]LER-NH2
modifications: lactam N-10; bridge 3-6; not fully specified (bridges); printed as [(3-Aminomethyl)benzoyl](1c)*SC(2a)WQC(2a)W[2-Nal]LE(1c)R-[NH2]

IC50 [4]: 0.18 nM
Ki [6]: 0.15 nM
hIL-23 (pSTAT3) antagonist % inhibition [1]: 97%
hIL-23 (pSTAT3) antagonist IC50 [1]: 11 nM
% displacement (hIL-23R binding) [5]: 98%
IC50 [5]: 0.18 nM
B2: Ref 80 (peptide)
peptide: [4‑Aminomethyl‑phenylacetyl]SCWQC[AEF][2Nal][αMeL]E[dR]-NH2
modifications: lactam N-10; bridge 3-6; not fully specified (bridges); printed as [4-Aminomethyl-phenylacetyl](1c)*SC(2a)WQC(2a)[Y(2-aminoethoxy)][2-Nal][2-Me-Leu]E(1c)[{d}R]-[NH2]
notes: Y = Y(2-aminoethoxy), R = D-Arg

hIL-23 (pSTAT3) antagonist % inhibition [1]: 98%
hIL-23 (pSTAT3) antagonist IC50 [1]: 1.7 nM
IC50 (pSTAT3) [2]: 1.7 nM
% displacement (hIL-23R binding) [3]: 99%
B3: Compound 3 (peptide)
peptide: [4‑Aminomethyl‑phenylacetyl]SEWQ[Dab][AEF][2Nal][αMeL]E[Dab][αMeAla(3-pyridyl)]-NH2
modifications: lactam N-10, 3-6
SMILES: CC(C)C[C@]1(C)NC(=O)[C@H](Cc2ccc3ccccc3c2)NC(=O)[C@H](Cc2ccc(OCCN)cc2)NC(=O)[C@@H]2CCNC(=O)CC[C@H](NC(=O)[C@H](CO)NC(=O)Cc3ccc(cc3)CNC(=O)CC[C@@H](C(=O)N[C@@H](CCN)C(=O)N[C@@](C)(Cc3cccnc3)C(N)=O)NC1=O)C(=O)N[C@@H](Cc1c[nH]c3ccccc13)C(=O)N[C@@H](CCC(N)=O)C(=O)N2

IC50 [4]: 0.058 nM
Ki [6]: 0.0475 nM
hIL-23 (pSTAT3) antagonist % inhibition [1]: 103%
hIL-23 (pSTAT3) antagonist IC50 [1]: 7.8 nM
% displacement (hIL-23R binding) [5]: 100%
IC50 [5]: 0.058 nM
B4: Ref 52 (peptide)
peptide: [4‑Aminomethyl‑phenylacetyl]SCWQC[AEF][2Nal][αMeL]ER-NH2
modifications: lactam N-10; bridge 3-6; not fully specified (bridges); printed as [4-Aminomethyl-phenylacetyl](1c)*SC(2a)WQC(2a)[Y(2-aminoethoxy)][2-Nal][2-Me-Leu]E(1c)R-[NH2]
notes: Y = Y(2-aminoethoxy)

IC50 (pSTAT3) [7]: 0.68 nM
% displacement (hIL-23R binding) [8]: 103%
IC50 [8]: 0.024 nM
hIL-23 (pSTAT3) antagonist % inhibition [1]: 98%
hIL-23 (pSTAT3) antagonist IC50 [1]: 0.68 nM
B5: Compound 11 (peptide)
peptide: [4‑Aminomethyl‑phenylacetyl]SEWQ[Dab][AEF][2Nal][αMeL]E[Dab][3Pal][β3hL]-NH2
modifications: lactam N-10, 3-6
SMILES: CC(C)C[C@@H](CC(N)=O)NC(=O)[C@H](Cc1cccnc1)NC(=O)[C@H](CCN)NC(=O)[C@@H]1CCC(=O)NCc2ccc(cc2)CC(=O)N[C@@H](CO)C(=O)N[C@H]2CCC(=O)NCC[C@H](NC(=O)[C@H](CCC(N)=O)NC(=O)[C@H](Cc3c[nH]c4ccccc34)NC2=O)C(=O)N[C@@H](Cc2ccc(OCCN)cc2)C(=O)N[C@@H](Cc2ccc3ccccc3c2)C(=O)N[C@@](C)(CC(C)C)C(=O)N1

IC50 [4]: 2.6 nM
Ki [6]: 2.11 nM
hIL-23 (pSTAT3) antagonist % inhibition [1]: 99%
hIL-23 (pSTAT3) antagonist IC50 [1]: 13 nM
% displacement (hIL-23R binding) [5]: 102%
IC50 [5]: 2.6 nM
B6: Compound C (peptide)
peptide: XQTWQCYWXENG
modifications: [Ac]-[Abu](16i)QTWQC(16i)[Y(2-aminoethoxy)]W[2-Me-Lys]ENG-[NH2]; (16i) [2,7] thioether bridge (cystathionine); N-terminal acetyl, C-terminal amide
notes: Y = Y(2-aminoethoxy)

IC50 [4]: 130 nM
Ki [6]: 104 nM
hIL-23 (pSTAT3) antagonist % inhibition [1]: 83%
% displacement (hIL-23R binding) [5]: 105%
IC50 [5]: 130 nM
B7: I1 (isomer 3) (peptide)
peptide: H-GCTCWECWWLCS-NH2
modifications: bridge 4-7, 2-11; not fully specified (bridges)
notes: compound from Heinis et al., 2020, synthesised for comparison

IC50 (pSTAT3) [7]: 25 pM
% displacement (hIL-23R binding) [8]: 100%
hIL-23 (pSTAT3) antagonist % inhibition [1]: 97%
hIL-23 (pSTAT3) antagonist IC50 [1]: 25 pM
B8: Compound 9 (peptide)
peptide: [4‑Aminomethyl‑phenylacetyl]SEWQ[Dab][AEF][2Nal][αMeL]E[Dab][3Pal][Sar]-NH2
modifications: lactam N-10, 3-6
SMILES: CC(C)C[C@]1(C)NC(=O)[C@H](Cc2ccc3ccccc3c2)NC(=O)[C@H](Cc2ccc(OCCN)cc2)NC(=O)[C@@H]2CCNC(=O)CC[C@H](NC(=O)[C@H](CO)NC(=O)Cc3ccc(cc3)CNC(=O)CC[C@@H](C(=O)N[C@@H](CCN)C(=O)N[C@@H](Cc3cccnc3)C(=O)N(C)CC(N)=O)NC1=O)C(=O)N[C@@H](Cc1c[nH]c3ccccc13)C(=O)N[C@@H](CCC(N)=O)C(=O)N2

IC50 [4]: 2.8 nM
Ki [6]: 2.31 nM
hIL-23 (pSTAT3) antagonist % inhibition [1]: 99%
hIL-23 (pSTAT3) antagonist IC50 [1]: 29 nM
% displacement (hIL-23R binding) [5]: 110%
IC50 [5]: 2.8 nM
B9: Ref 41 (peptide)
peptide: [3Amb]SCWQC[AEF][2Nal][αMeL]E[dR]-NH2
modifications: lactam N-10; bridge 3-6; not fully specified (bridges); printed as [(3-Aminomethyl)benzoyl](1c)*SC(2a)WQC(2a)[Y(2-aminoethoxy)][2-Nal][2-Me-Leu]E(1c)[{d}R]-[NH2]
notes: as for B2

IC50 [4]: 0.39 nM
Ki [6]: 0.318 nM
hIL-23 (pSTAT3) antagonist % inhibition [1]: 95%
hIL-23 (pSTAT3) antagonist IC50 [1]: 21 nM
IC50 [5]: 0.39 nM
B10: Ref 81 (peptide)
peptide: [4‑Aminomethyl‑phenylacetyl]SCWQC[AEF][2Nal][αMeL]ES-NH2
modifications: lactam (positions not given here); bridge 3-6; not fully specified (bridges); printed as [4-Aminomethyl-phenylacetyl](1c)*SC(2a)WQC(2a)[Y(2-aminoethoxy)][2-Nal][2-Me-Leu]E(1c)S-[NH2]
notes: Y = Y(2-aminoethoxy)

hIL-23 (pSTAT3) antagonist % inhibition [1]: 101%
hIL-23 (pSTAT3) antagonist IC50 [1]: 53 pM
IC50 (pSTAT3) [2]: 53 pM
% displacement (hIL-23R binding) [3]: 103%
Binder: [4‑Aminomethyl‑phenylacetyl]SEWQ[Dab][AEF][2Nal][αMeL]E[Dab][3Pal]-NHMe (lactam N-10, 3-6) [Compound 8]

IC50 (pSTAT3) [7]: 38 pM
% displacement (hIL-23R binding) [8]: 91%
hIL-23 (pSTAT3) antagonist % inhibition [1]: 99%
hIL-23 (pSTAT3) antagonist IC50 [1]: 38 pM
B11: Compound 10 (peptide)
peptide: [4‑Aminomethyl‑phenylacetyl]SEWQ[Dab][AEF][2Nal][αMeL]E[Dab][3Pal][dH]-NH2
modifications: lactam N-10, 3-6
SMILES: CC(C)C[C@]1(C)NC(=O)[C@H](Cc2ccc3ccccc3c2)NC(=O)[C@H](Cc2ccc(OCCN)cc2)NC(=O)[C@@H]2CCNC(=O)CC[C@H](NC(=O)[C@H](CO)NC(=O)Cc3ccc(cc3)CNC(=O)CC[C@@H](C(=O)N[C@@H](CCN)C(=O)N[C@@H](Cc3cccnc3)C(=O)N[C@H](Cc3c[nH]cn3)C(N)=O)NC1=O)C(=O)N[C@@H](Cc1c[nH]c3ccccc13)C(=O)N[C@@H](CCC(N)=O)C(=O)N2
